# Measurements taken from PMC11661312, “The identification of XPR1 as a voltage- and phosphate-activated phosphate-permeable ion channel” (Research Square, 2024).
# B1: human Xenotropic and Polytropic retrovirus Receptor 1 (hXPR1) (natural protein, UniProt Q9UBH6 1-696, looked up)
# chain: MKFAEHLSAHITPEWRKQYIQYEAFKDMLYSAQDQAPSVEVTDEDTVKRYFAKFEEKFFQTCEKELAKINTFYSEKLAEAQRRFATLQNELQSSLDAQKESTGVTTLRQRRKPVFHLSHEERVQHRNIKDLKLAFSEFYLSLILLQNYQNLNFTGFRKILKKHDKILETSRGADWRVAHVEVAPFYTCKKINQLISETEAVVTNELEDGDRQKAMKRLRVPPLGAAQPAPAWTTFRVGLFCGIFIVLNITLVLAAVFKLETDRSIWPLIRIYRGGFLLIEFLFLLGINTYGWRQAGVNHVLIFELNPRSNLSHQHLFEIAGFLGILWCLSLLACFFAPISVIPTYVYPLALYGFMVFFLINPTKTFYYKSRFWLLKLLFRVFTAPFHKVGFADFWLADQLNSLSVILMDLEYMICFYSLELKWDESKGLLPNNSEESGICHKYTYGVRAIVQCIPAWLRFIQCLRRYRDTKRAFPHLVNAGKYSTTFFMVTFAALYSTHKERGHSDTMVFFYLWIVFYIISSCYTLIWDLKMDWGLFDKNAGENTFLREEIVYPQKAYYYCAIIEDVILRFAWTIQISITSTTLLPHSGDIIATVFAPLEVFRRFVWNFFRLENEHLNNCGEFRAVRDISVAPLNADDQTLLEQMMDQDDGVRNRQKNRSWKYNQSISLRRPRLASQSKARDTKVLIEDTDDEANT
# notes: Xenotropic and Polytropic retrovirus Receptor 1 (XPR1), human, Uniprot Q9UBH6, full length; cDNA synthesized with a C-terminal Strep-tag II; Homodimer in the detergent mixture (GDN/LMNG/CHS) by cryo-EM; also called SLC53a1; apo-hXPR1
# Biological target: the molecule itself
# Assay: cryo-EM structure; purified hXPR1 at 10 to 20 mg/mL in GDN/LMNG/CHS detergent mixture; apo: 20 mM Tris pH 7.4, 150 mM NaCl (C1 symmetry); also with 25 mM sodium phosphate, 150 mM NaCl, 1 mM phytic acid (InsP6) pH 7.4 (C2 symmetry imposed)
protein,measurement,value
B1,stoichiometry N,2
